Test results: patent US20200231654A1 (published 2020)

Assays:
[1] = molecular target: biotin-labeled active hMMP-9(cat)_FLAG_Avi (UniProt P14780 107-449, biotin on the Avi tag (biotin ligase BirA)); assay: ELISA
[2] = molecular target: APMA-activated human MMP-13 enzyme active domain (human, UniProt P45452 104-274); assay: enzyme inhibition
[3] = molecular target: T1, MMP-7 (catalytic domain) (human), (recombinant) (human, UniProt P09237 95-267); assay: enzyme inhibition
T1 chain: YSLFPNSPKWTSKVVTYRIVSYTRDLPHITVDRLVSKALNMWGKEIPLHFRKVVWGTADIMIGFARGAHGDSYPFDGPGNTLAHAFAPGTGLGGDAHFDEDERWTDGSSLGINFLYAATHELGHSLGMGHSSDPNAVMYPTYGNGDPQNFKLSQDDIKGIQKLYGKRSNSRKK

[4] = molecular target: Recombinant Human MMP-16/MT3-MMP Protein, CF (human, UniProt P51512 32-564); assay: enzyme inhibition
Recombinant Human MMP-16/MT3-MMP Protein, CF, sequence (P51512 32-564): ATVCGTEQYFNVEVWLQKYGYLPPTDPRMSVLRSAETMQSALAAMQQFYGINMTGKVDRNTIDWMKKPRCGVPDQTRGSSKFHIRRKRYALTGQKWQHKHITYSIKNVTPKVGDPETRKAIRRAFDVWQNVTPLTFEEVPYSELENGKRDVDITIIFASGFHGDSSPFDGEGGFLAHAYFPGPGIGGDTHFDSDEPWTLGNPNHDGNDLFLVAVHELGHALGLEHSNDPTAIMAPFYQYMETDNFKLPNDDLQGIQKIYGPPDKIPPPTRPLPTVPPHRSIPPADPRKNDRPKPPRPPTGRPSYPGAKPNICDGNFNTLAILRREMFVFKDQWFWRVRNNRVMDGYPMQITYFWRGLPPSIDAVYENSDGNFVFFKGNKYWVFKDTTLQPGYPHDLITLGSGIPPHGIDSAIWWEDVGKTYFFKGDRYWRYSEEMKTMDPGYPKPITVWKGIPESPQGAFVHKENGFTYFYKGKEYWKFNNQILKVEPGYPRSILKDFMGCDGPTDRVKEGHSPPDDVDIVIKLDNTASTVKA

[5] = molecular target: MMP-12 (catalytic domain) (human), (recombinant) (human, UniProt P39900 106-263); assay: enzyme inhibition
MMP-12 (catalytic domain) (human), (recombinant), sequence (P39900 106-263): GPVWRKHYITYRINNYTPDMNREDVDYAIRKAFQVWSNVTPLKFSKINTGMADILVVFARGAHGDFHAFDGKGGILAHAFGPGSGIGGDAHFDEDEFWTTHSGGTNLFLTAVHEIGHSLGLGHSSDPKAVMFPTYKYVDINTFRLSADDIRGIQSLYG

[6] = molecular target: T2, Recombinant Human MMP-17 Protein, CF (human, UniProt Q9ULZ9 36-565); assay: enzyme inhibition
T2 chain: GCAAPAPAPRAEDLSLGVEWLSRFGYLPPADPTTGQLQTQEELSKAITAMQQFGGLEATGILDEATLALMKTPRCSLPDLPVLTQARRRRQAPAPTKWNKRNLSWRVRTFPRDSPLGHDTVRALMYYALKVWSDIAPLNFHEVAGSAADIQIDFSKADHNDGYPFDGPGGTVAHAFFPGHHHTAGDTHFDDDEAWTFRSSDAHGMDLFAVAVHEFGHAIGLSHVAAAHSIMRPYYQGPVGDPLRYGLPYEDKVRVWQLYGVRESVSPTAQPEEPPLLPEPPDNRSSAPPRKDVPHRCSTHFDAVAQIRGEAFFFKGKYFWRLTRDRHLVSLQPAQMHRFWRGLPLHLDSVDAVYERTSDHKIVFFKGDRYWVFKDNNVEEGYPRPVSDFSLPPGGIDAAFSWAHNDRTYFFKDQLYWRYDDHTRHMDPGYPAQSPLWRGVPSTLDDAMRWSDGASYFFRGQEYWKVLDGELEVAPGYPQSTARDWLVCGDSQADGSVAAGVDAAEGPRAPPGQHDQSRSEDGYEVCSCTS

[7] = molecular target: MMP-10 (catalytic domain) (human), (recombinant) (human, UniProt P09238 99-266); assay: enzyme inhibition
MMP-10 (catalytic domain) (human), (recombinant), sequence (P09238 99-266): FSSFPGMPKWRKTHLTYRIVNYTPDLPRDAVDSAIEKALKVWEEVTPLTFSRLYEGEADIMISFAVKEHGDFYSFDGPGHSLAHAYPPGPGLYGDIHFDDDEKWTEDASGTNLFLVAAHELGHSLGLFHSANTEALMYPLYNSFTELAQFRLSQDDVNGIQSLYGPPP

[8] = molecular target: T3, MMP-2, active, Human, Recombinant, CHO Cells (human, UniProt P08253 110-660); assay: enzyme inhibition
T3 chain: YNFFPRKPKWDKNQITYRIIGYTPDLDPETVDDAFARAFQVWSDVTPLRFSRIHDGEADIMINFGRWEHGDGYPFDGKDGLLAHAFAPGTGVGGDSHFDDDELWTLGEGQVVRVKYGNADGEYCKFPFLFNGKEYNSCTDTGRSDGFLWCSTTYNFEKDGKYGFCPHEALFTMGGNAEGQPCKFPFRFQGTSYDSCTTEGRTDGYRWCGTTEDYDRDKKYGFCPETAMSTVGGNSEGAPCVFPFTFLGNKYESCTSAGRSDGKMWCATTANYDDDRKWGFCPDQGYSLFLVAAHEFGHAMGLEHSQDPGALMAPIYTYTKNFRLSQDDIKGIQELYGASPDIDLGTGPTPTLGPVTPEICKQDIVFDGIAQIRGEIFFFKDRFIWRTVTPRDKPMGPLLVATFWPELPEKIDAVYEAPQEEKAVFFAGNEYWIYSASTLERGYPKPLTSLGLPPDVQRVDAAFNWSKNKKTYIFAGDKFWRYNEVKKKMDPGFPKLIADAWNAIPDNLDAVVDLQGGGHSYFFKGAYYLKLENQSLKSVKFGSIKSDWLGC

[9] = molecular target: human MMP-3 activated by APMA (human, UniProt P08254 100-477); assay: enzyme inhibition
human MMP-3 activated by APMA, sequence (P08254 100-477): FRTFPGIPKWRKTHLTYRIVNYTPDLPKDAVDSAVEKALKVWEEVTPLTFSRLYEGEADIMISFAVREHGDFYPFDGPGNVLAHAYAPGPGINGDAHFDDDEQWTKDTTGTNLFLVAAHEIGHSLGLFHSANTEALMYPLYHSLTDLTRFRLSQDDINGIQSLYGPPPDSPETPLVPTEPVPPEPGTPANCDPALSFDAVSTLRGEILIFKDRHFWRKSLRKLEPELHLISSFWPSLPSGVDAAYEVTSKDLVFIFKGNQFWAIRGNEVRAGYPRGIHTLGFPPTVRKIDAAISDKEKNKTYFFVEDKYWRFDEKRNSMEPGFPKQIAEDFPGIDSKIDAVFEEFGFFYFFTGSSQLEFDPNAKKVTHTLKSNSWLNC

[10] = molecular target: MT2-MMP, Catalytic Domain, Human, Recombinant, E. coli (human, UniProt P51511 132-304); assay: enzyme inhibition
MT2-MMP, Catalytic Domain, Human, Recombinant, E. coli, sequence (P51511 132-304): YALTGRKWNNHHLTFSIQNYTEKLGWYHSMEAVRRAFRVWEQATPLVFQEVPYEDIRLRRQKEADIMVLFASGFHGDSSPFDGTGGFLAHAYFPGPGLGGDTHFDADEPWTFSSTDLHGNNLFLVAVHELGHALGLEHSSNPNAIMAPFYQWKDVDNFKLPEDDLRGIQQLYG

[11] = molecular target: T4, ADAM17 (catalytic domain) (human), (recombinant) (His-tag) (human, UniProt P78536 215-477); assay: enzyme inhibition
T4 chain: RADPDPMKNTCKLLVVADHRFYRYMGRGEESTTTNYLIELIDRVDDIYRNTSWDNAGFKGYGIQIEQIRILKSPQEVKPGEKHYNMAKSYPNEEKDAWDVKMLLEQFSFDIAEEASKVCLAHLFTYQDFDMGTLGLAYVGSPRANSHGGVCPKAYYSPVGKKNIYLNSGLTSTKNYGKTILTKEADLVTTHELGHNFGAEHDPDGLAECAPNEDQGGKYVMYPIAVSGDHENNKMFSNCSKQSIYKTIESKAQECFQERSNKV

[12] = molecular target: MMP14 Recombinant Protein (human, UniProt P50281 112-287); assay: enzyme inhibition
active hMMP-9(cat)_His6 = active hMMP-9(cat)_His6 (UniProt P14780 107-449); assay: enzyme inhibition; substrate peptide
active hMMP-9(cat)_His6, sequence (P14780 107-449): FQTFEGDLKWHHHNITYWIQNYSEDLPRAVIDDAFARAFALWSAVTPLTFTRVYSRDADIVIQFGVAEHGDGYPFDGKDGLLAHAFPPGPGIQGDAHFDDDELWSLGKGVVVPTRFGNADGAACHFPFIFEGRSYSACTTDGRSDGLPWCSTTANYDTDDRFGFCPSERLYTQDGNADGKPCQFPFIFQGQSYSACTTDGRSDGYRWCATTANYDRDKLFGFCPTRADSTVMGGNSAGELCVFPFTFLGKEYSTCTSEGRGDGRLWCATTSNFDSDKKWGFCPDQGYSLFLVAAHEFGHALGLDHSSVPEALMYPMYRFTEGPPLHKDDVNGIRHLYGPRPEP

[13] = molecular target: active mMMP-9(cat)_FLAG_Avi (UniProt P41245 108-450); assay: enzyme inhibition; substrate peptide
active mMMP-9(cat)_FLAG_Avi, sequence (P41245 other isoform, or with tags, fused parts or gaps): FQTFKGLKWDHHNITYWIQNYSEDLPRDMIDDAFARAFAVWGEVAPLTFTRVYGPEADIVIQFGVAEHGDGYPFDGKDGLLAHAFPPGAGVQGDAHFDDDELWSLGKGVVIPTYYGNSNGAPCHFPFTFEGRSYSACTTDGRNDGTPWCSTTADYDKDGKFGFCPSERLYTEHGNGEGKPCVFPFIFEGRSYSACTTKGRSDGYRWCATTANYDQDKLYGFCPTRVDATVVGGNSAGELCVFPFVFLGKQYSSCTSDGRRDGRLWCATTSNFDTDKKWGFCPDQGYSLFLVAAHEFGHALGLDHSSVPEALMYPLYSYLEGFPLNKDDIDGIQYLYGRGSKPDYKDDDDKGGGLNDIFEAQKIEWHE

biotin-labeled active hMMP-9(cat)_FLAG_Avi, sequence (P14780 other isoform, or with tags, fused parts or gaps): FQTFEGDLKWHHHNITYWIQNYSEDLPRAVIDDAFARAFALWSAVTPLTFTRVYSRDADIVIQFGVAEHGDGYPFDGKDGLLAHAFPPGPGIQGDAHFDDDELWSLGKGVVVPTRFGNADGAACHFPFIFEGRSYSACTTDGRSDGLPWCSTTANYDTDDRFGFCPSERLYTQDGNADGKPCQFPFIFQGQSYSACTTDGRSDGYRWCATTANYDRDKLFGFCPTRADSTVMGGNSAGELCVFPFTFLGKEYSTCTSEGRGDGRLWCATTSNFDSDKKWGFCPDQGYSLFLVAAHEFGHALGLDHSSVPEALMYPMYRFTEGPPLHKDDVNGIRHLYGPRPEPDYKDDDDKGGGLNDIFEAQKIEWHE

Binder	EC50 [1]	IC50 [2]	IC50 [3]	IC50 [4]	IC50 [5]	IC50 [6]	IC50 [7]	IC50 [8]	IC50 [9]	IC50 [10]	IC50 [11]	IC50 [12]	Ki (active hMMP-9(cat)_His6)	IC50 [13]
active MMP-9-binding peptide M91004 (designed binder) GSGMKETAAAKFERQHMDSPDLGTDDDDKAMADIGSANSDPQFGLFSKYRTPNCRQRKGPSCQMAFQPVCGSDMSTYANECTLCMKIREGGHNIKIIRNGPCGASAAA	42 nM	> 1000 nM	> 1000 nM	> 1000 nM	> 1000 nM	> 1000 nM	> 1000 nM	> 1000 nM	> 1000 nM	> 1000 nM	> 1000 nM	> 1000 nM	1.2 nM	7.1 nM
active MMP-9-binding peptide M91012 (designed binder) GSGMKETAAAKFERQHMDSPDLGTDDDDKAMADIGSANSDPQFGLFSKYRTPNCRVRGGPSCQMSFNPVCGSDMSTYANECTLCMKIREGGHNIKIIRNGPCGASAAA	46 nM	> 1000 nM	> 1000 nM	> 1000 nM	> 1000 nM	> 1000 nM	> 1000 nM	> 1000 nM	> 1000 nM	> 1000 nM	> 1000 nM	> 1000 nM	2.1 nM	7.8 nM
active MMP-9-binding peptide M91002 (designed binder) GSGMKETAAAKFERQHMDSPDLGTDDDDKAMADIGSANSDPQFGLFSKYRTPNCRTGRGPACQMGFQPVCGSDMSTYANECTLCMKIREGGHNIKIIRNGPCGASAAA	47 nM	> 1000 nM	> 1000 nM	> 1000 nM	> 1000 nM	> 1000 nM	> 1000 nM	> 1000 nM	> 1000 nM	> 1000 nM	> 1000 nM	> 1000 nM	2.3 nM	5.1 nM
active MMP-9-binding peptide M91001 (designed binder) GSGMKETAAAKFERQHMDSPDLGTDDDDKAMADIGSANSDPQFGLFSKYRTPNCQRGIGPSCQMSYKPVCGSDMSTYANECTLCMKIREGGHNIKIIRNGPCGASAAA	22 nM	> 1000 nM	> 1000 nM	> 1000 nM	> 1000 nM	> 1000 nM	> 1000 nM	> 1000 nM	> 1000 nM	> 1000 nM	> 1000 nM	> 1000 nM	2.6 nM	4.1 nM
active MMP-9-binding peptide M91010 (designed binder) GSGMKETAAAKFERQHMDSPDLGTDDDDKAMADIGSANSDPQFGLFSKYRTPNCRKVGEPACQMSFNPVCGSDMSTYANECTLCMKIREGGHNIKIIRNGPCGASAAA	48 nM	> 1000 nM	> 1000 nM	> 1000 nM	> 1000 nM	> 1000 nM	> 1000 nM	> 1000 nM	> 1000 nM	> 1000 nM	> 1000 nM	> 1000 nM	1.2 nM	5 nM
active MMP-9-binding peptide M91014 (designed binder) GSGMKETAAAKFERQHMDSPDLGTDDDDKAMADIGSANSDPQFGLFSKYRTPNCVMYKYAQCSHKYKPVCGSDMSTYANECTLCMKIREGGHNIKIIRNGPCGASAAA	8 nM	> 1000 nM	> 1000 nM	> 1000 nM	> 1000 nM	> 1000 nM	> 1000 nM	> 1000 nM	> 1000 nM	> 1000 nM	> 1000 nM	> 1000 nM	0.45 nM	9.2 nM
active MMP-9-binding peptide M91011 (designed binder) GSGMKETAAAKFERQHMDSPDLGTDDDDKAMADIGSANSDPQFGLFSKYRTPNCMMYKYAQCSHKSQPVCGSDMSTYANECTLCMKIREGGHNIKIIRNGPCGASAAA	16 nM	> 1000 nM	> 1000 nM	> 1000 nM	> 1000 nM	> 1000 nM	> 1000 nM	> 1000 nM	> 1000 nM	> 1000 nM	> 1000 nM	> 1000 nM	1.6 nM	21 nM
active MMP-9-binding peptide M91005 (designed binder) GSGMKETAAAKFERQHMDSPDLGTDDDDKAMADIGSANSDPQFGLFSKYRTPNCRKRGGPSCQMSYNPVCGSDMSTYANECTLCMKIREGGHNIKIIRNGPCGASAAA	46 nM	> 1000 nM	> 1000 nM	> 1000 nM	> 1000 nM	> 1000 nM	> 1000 nM	> 1000 nM	> 1000 nM	> 1000 nM	> 1000 nM	> 1000 nM	1.4 nM	8.4 nM
